According to patent US11591604B2, “Gene expression in Bacteroides” (Massachusetts Institute of Technology, priority 2015, dated 2023):

B1: Int12: Serine integrase, SEQ ID NO: 167 (protein)
chain: MKVAIYTRVSSAEQANEGYSIHEQKKKLISYCEIHDWNEYKVFTDAGISGGSMKRPALQKLMKHLSSFDLVLVYKLDRLTRNVRDLLDMLEEFEQYNVSFKSATEVFDTTSAIGKLFITMVGAMAEWERETIRERSLFGSRAAVREGNYIREAPFCYDNIEGKLHPNEYAKVIDLIVSMFKKGISANEIARRLNSSKVHVPNKKSWNRNSLIRLMRSPVLRGHTKYGDMLIENTHEPVLSEHDYNAINNAISSKTHKSKVKHHAIFRGALVCPQCNRRLHLYAGTVKDRKGYKYDVRRYKCETCSKNKDVKNVSFNESEVENKFVNLLKSYELNKFHIRKVEPVKKIEYDIDKINKQKINYTRSWSLGYIEDDEYFELMEEINATKKMIEEQTTENKQSVSKEQIQSINNFILKGWEELTIKDKEELILSTVDKIEFNFIPKDKKHKTNTLDINNIHFKF

Experiments:
Bacteroides spp = assay: pNBU1 integration and gene expression across Bacteroides and Parabacteroides species; format: cell-based
Text: FIG. 11 is a graph showing that pNBU1 may be used to target, for example, B. thetaiotaomicron, B. fragilis, B. ovatus, B. vulgatus, B. caccae, B. eggerthii, B. vulgatus and Parabacteroides distasonis.
An integration vector, designated pNBU1, was created to introduce recombinant DNA into a wide range of Bacteroides species (FIG. 10). IntN1 integrase catalyzes site-specific genomic integration of the plasmid into recipient Bacteroides strains.

[1] = system: integrase recognition sequences in the memory array; assay: Integrase-mediated DNA inversion in chromosomal memory array detected by PCR; format: cell-based, B. thetaiotaomicron; settings: integrase expressed from PAM4-rpiL*, PCR detection
Text: (FIG. 3C) Integrase-mediated DNA inversion at each integrase target sequence in the memory array cassette was detected by polymerase chain reaction (PCR). Primer pairs (arrows) anneals to the interface of the integrase recognition sites and to the spacer region between recognition sites. PCR amplification occurs only after an inversion event (solid lines below the primer arrows indicate expected amplicons). (FIG. 3D) Representative PCR products are shown after recombination. − indicates no integrase, + indicates the integrase is present. PAM4-rpiL* was used to control expression of each integrase.

B. thetaiotaomicron = assay: Cell growth (OD600) of P3763-rpiL*C51-Int12 strain versus rhamnose concentration; format: cell-based; settings: even when maximally expressed
Text: FIGS. 8A-8B. Integrase characterization. (FIG. 8A) Representative PCR products are shown for wild-type (unflipped) memory array at each integrase recognition sequence. “−” indicates no integrase, “+” indicates the integrase is present. PAM4-rpiL* was used to control expression of each integrase. (FIG. 8B) Cell growth of the P3763-rpiL*C51-Int12 strain is shown as optical density (OD) at 600 nm as a function of rhamnose concentration. Inducer concentrations were three-fold serial dilutions starting at 10 mM rhamnose. The leftmost data point represents the […] in the absence of inducer. Cells were grown 8 hours at 37° C. before measuring the OD600 value for each culture. Error bars represent the standard deviation of three biological replicates made on three different days (n=3).
To create an inducible memory switch, Int12 was cloned under the control of the rhamnose-inducible promoter with the rpiL*RBS variant C51 (FIG. 3E) (see also FIG. 1C, Table 1).

Row | Molecule | host range and efficiency relative to the pNBU2 plasmid (Bacteroides spp) | recombination at the respective recognition sequence in the memory array [1] | impact on growth of B. thetaiotaomicron (B. thetaiotaomicron)
1 | pNBU1: integration vector with IntN1 integrase, SEQ ID NO: 209 | greater host range and efficiency | – | –
2 | B1 | – | catalyzed recombination | did not impact growth
